From the supplement of paper PMC9112550, “Optimization of the antimicrobial peptide Bac7 by deep mutational scanning” (BMC Biology, 2022)

test system: Escherichia coli TOP10; assay: shrunken log2 fold change of peptide-encoding DNA abundance (4.5 h post-induction vs induction); higher = less antimicrobial activity (less host growth inhibition); conditions: time post-induction: 4.5 h; library: site-saturation at positions 5, 18, 19, 20
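Also: peptides expressed intracellularly from a pBAD plasmid library in pooled LB shake-flask culture, induced with 0.3% L-arabinose, DNA abundance read by NGS, three biological replicates, DESeq2 with apeglm shrinkage.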

Row | Sequence | shrunken log2 fold change
1 | RRIRSRPPRLPRPRPRPGWKPRP | 0.0342
2 | RRIRVRPPRLPRPRPRPIPKPRP | -0.131
3 | RRIRCRPPRLPRPRPRPIMYPRP | -0.916
4 | RRIRIRPPRLPRPRPRPLGEPRP | -0.277
5 | RRIRCRPPRLPRPRPRPFLAPRP | 0.0788
6 | RRIRWRPPRLPRPRPRPLERPRP | -0.148
7 | RRIRARPPRLPRPRPRPNRVPRP | 0.0397
8 | RRIRYRPPRLPRPRPRPSPMPRP | -0.486
9 | RRIRYRPPRLPRPRPRPDSLPRP | -0.142
10 | RRIRPRPPRLPRPRPRPHHIPRP | -0.544
11 | RRIRIRPPRLPRPRPRPWSCPRP | 0.0678
12 | RRIRIRPPRLPRPRPRPQIGPRP | -0.451
13 | RRIRWRPPRLPRPRPRPLAFPRP | 0.153
14 | RRIRWRPPRLPRPRPRPLDGPRP | 0.15
15 | RRIRARPPRLPRPRPRPVMPPRP | 0.457
16 | RRIRQRPPRLPRPRPRPIPNPRP | -0.0226
17 | RRIRTRPPRLPRPRPRPEMSPRP | -0.145
18 | RRIRDRPPRLPRPRPRPYRWPRP | -0.146
19 | RRIRCRPPRLPRPRPRPEHPPRP | -0.131
20 | RRIRIRPPRLPRPRPRPVYPPRP | -0.233
21 | RRIRERPPRLPRPRPRPMMMPRP | -0.182
22 | RRIRQRPPRLPRPRPRPIWCPRP | -0.0171
23 | RRIRRRPPRLPRPRPRPDMKPRP | -0.124
24 | RRIRGRPPRLPRPRPRPGPWPRP | 0.484
25 | RRIRFRPPRLPRPRPRPDCPPRP | -0.364

Row | Sequence | shrunken log2 fold change
26 | RRIRARPPRLPRPRPRPIEMPRP | 0.563
27 | RRIRHRPPRLPRPRPRPIWTPRP | -0.311
28 | RRIRQRPPRLPRPRPRPQHKPRP | -0.205
29 | RRIRNRPPRLPRPRPRPNGDPRP | -0.0698
30 | RRIRGRPPRLPRPRPRPGIAPRP | 0.864
31 | RRIRSRPPRLPRPRPRPMEYPRP | -0.00133
32 | RRIRDRPPRLPRPRPRPGSMPRP | -0.403
33 | RRIRRRPPRLPRPRPRPTNHPRP | -0.0627
34 | RRIRCRPPRLPRPRPRPKLIPRP | -0.0459
35 | RRIRHRPPRLPRPRPRPYILPRP | -0.576
36 | RRIRYRPPRLPRPRPRPMKCPRP | -0.905
37 | RRIRMRPPRLPRPRPRPYRWPRP | -0.00788
38 | RRIRIRPPRLPRPRPRPATRPRP | 0.19
39 | RRIRKRPPRLPRPRPRPRSWPRP | 0.833
40 | RRIRNRPPRLPRPRPRPCEMPRP | 0.019
41 | RRIRARPPRLPRPRPRPQWLPRP | 0.144
42 | RRIRRRPPRLPRPRPRPAMMPRP | 0.163
43 | RRIRSRPPRLPRPRPRPNFLPRP | -0.304
44 | RRIRARPPRLPRPRPRPGCHPRP | 0.265
45 | RRIRMRPPRLPRPRPRPTQPPRP | 0.176
46 | RRIRQRPPRLPRPRPRPPSVPRP | 0.0958
47 | RRIRPRPPRLPRPRPRPNLRPRP | 0.197
48 | RRIRSRPPRLPRPRPRPYPYPRP | -0.646
49 | RRIRLRPPRLPRPRPRPSHSPRP | -0.775
50 | RRIRIRPPRLPRPRPRPGPHPRP | 0.0135

Row | Sequence | shrunken log2 fold change
51 | RRIRLRPPRLPRPRPRPPLEPRP | 0.752
52 | RRIRHRPPRLPRPRPRPHYNPRP | -1.11
53 | RRIRFRPPRLPRPRPRPDKFPRP | -0.0567
54 | RRIRDRPPRLPRPRPRPGWKPRP | 0.136
55 | RRIRPRPPRLPRPRPRPEVIPRP | 0.0141
56 | RRIRFRPPRLPRPRPRPEHQPRP | -0.1
57 | RRIRNRPPRLPRPRPRPEVKPRP | -0.031
58 | RRIRDRPPRLPRPRPRPYAVPRP | -0.165
59 | RRIRKRPPRLPRPRPRPDDLPRP | 0.0928
60 | RRIRWRPPRLPRPRPRPCLVPRP | 0.144
61 | RRIRDRPPRLPRPRPRPYIDPRP | -0.0251
62 | RRIRSRPPRLPRPRPRPFVQPRP | -0.496
63 | RRIRRRPPRLPRPRPRPLQHPRP | 0.387
64 | RRIRRRPPRLPRPRPRPNFIPRP | -0.481
65 | RRIRERPPRLPRPRPRPGNNPRP | -0.426
66 | RRIRNRPPRLPRPRPRPSSCPRP | -0.063
67 | RRIRDRPPRLPRPRPRPYRNPRP | -0.00595
68 | RRIRARPPRLPRPRPRPAFQPRP | 0.174
69 | RRIRGRPPRLPRPRPRPGPHPRP | 0.57
70 | RRIRNRPPRLPRPRPRPMVRPRP | 4.1
71 | RRIRYRPPRLPRPRPRPMDWPRP | 0.0155
72 | RRIRERPPRLPRPRPRPTLWPRP | 0.364
73 | RRIRARPPRLPRPRPRPNWVPRP | -0.361
74 | RRIRSRPPRLPRPRPRPQLGPRP | 0.115
75 | RRIRPRPPRLPRPRPRPEDSPRP | 0.159

Row | Sequence | shrunken log2 fold change
76 | RRIRARPPRLPRPRPRPFIEPRP | 0.0738
77 | RRIRPRPPRLPRPRPRPITQPRP | -0.194
78 | RRIRQRPPRLPRPRPRPVRTPRP | 0.0701
79 | RRIRGRPPRLPRPRPRPTNKPRP | 0.242
80 | RRIRCRPPRLPRPRPRPIRVPRP | 0.161
81 | RRIRLRPPRLPRPRPRPPASPRP | 0.561
82 | RRIRNRPPRLPRPRPRPAKEPRP | 0.0446
83 | RRIRGRPPRLPRPRPRPRQFPRP | 0.354
84 | RRIRMRPPRLPRPRPRPMQKPRP | 0.0563
85 | RRIRRRPPRLPRPRPRPLFWPRP | 0.472
86 | RRIRYRPPRLPRPRPRPYMKPRP | -0.122
87 | RRIRSRPPRLPRPRPRPRHHPRP | -0.163
88 | RRIRVRPPRLPRPRPRPQFEPRP | -0.119
89 | RRIRARPPRLPRPRPRPVCWPRP | 0.894
90 | RRIRARPPRLPRPRPRPRSKPRP | 0.374
91 | RRIRSRPPRLPRPRPRPRMCPRP | -0.155
92 | RRIRLRPPRLPRPRPRPLMSPRP | -0.0608
93 | RRIRFRPPRLPRPRPRPVISPRP | -0.674
94 | RRIRARPPRLPRPRPRPEQDPRP | 0.805
95 | RRIRERPPRLPRPRPRPNICPRP | -0.523
96 | RRIRIRPPRLPRPRPRPARNPRP | -0.179
97 | RRIRFRPPRLPRPRPRPAQKPRP | 0.166
98 | RRIRERPPRLPRPRPRPDADPRP | 0.0155
99 | RRIRARPPRLPRPRPRPGTCPRP | 0.153
100 | RRIRHRPPRLPRPRPRPCFYPRP | -0.356

Row | Sequence | shrunken log2 fold change
101 | RRIRGRPPRLPRPRPRPDMWPRP | 0.132
102 | RRIRHRPPRLPRPRPRPPCQPRP | 0.0503
103 | RRIRMRPPRLPRPRPRPTMTPRP | 2.3
104 | RRIRERPPRLPRPRPRPNMLPRP | -0.753
105 | RRIRYRPPRLPRPRPRPGFVPRP | 0.0168
106 | RRIRDRPPRLPRPRPRPQGMPRP | -0.00277
107 | RRIRFRPPRLPRPRPRPWWAPRP | -0.377
108 | RRIRRRPPRLPRPRPRPGMHPRP | 0.217
109 | RRIRWRPPRLPRPRPRPDAGPRP | 0.485
110 | RRIRSRPPRLPRPRPRPAHHPRP | 0.048
111 | RRIRTRPPRLPRPRPRPGFQPRP | -0.0547
112 | RRIRRRPPRLPRPRPRPRCPPRP | 0.605
113 | RRIRLRPPRLPRPRPRPHLFPRP | -0.0266
114 | RRIRPRPPRLPRPRPRPDGQPRP | 0.204
115 | RRIRSRPPRLPRPRPRPHNWPRP | -0.248
116 | RRIRHRPPRLPRPRPRPYNLPRP | -0.302
117 | RRIRMRPPRLPRPRPRPLSDPRP | 0.861
118 | RRIRNRPPRLPRPRPRPAMHPRP | -0.273
119 | RRIRPRPPRLPRPRPRPMIYPRP | -0.113
120 | RRIRNRPPRLPRPRPRPECQPRP | 0.00386
121 | RRIRYRPPRLPRPRPRPDVFPRP | -0.0152
122 | RRIRWRPPRLPRPRPRPTGCPRP | 0.141
123 | RRIRDRPPRLPRPRPRPNDMPRP | -0.104
124 | RRIRCRPPRLPRPRPRPNSSPRP | -0.366
125 | RRIRDRPPRLPRPRPRPGCRPRP | 0.398

Row | Sequence | shrunken log2 fold change
126 | RRIRWRPPRLPRPRPRPCSGPRP | -0.0411
127 | RRIRGRPPRLPRPRPRPQPQPRP | 0.706
128 | RRIRIRPPRLPRPRPRPEEIPRP | -0.0261
129 | RRIRKRPPRLPRPRPRPNKLPRP | -0.0293
130 | RRIRRRPPRLPRPRPRPRLWPRP | 0.273
131 | RRIRSRPPRLPRPRPRPLQSPRP | 0.49
132 | RRIRVRPPRLPRPRPRPCTEPRP | -0.167
133 | RRIRYRPPRLPRPRPRPRDTPRP | -0.378
134 | RRIRERPPRLPRPRPRPKVQPRP | 0.105
135 | RRIRGRPPRLPRPRPRPQLKPRP | 0.404
136 | RRIRCRPPRLPRPRPRPQMPPRP | -0.0931
137 | RRIRQRPPRLPRPRPRPLTEPRP | -0.22
138 | RRIRQRPPRLPRPRPRPRDTPRP | 0.0606
139 | RRIRWRPPRLPRPRPRPDFNPRP | -0.0747
140 | RRIRSRPPRLPRPRPRPCKMPRP | -0.215
141 | RRIRRRPPRLPRPRPRPFQVPRP | -0.0462
142 | RRIRDRPPRLPRPRPRPVCCPRP | 0.967
143 | RRIRIRPPRLPRPRPRPPWDPRP | 0.0808
144 | RRIRKRPPRLPRPRPRPWFYPRP | -0.0799
145 | RRIRRRPPRLPRPRPRPENDPRP | 0.785
146 | RRIRFRPPRLPRPRPRPRAPPRP | 0.821
147 | RRIRCRPPRLPRPRPRPFFTPRP | -0.0887
148 | RRIRARPPRLPRPRPRPNHSPRP | -0.55
149 | RRIRDRPPRLPRPRPRPHQRPRP | 0.0159
150 | RRIRNRPPRLPRPRPRPEPGPRP | 0.321
